Key:
AncSZ = test: phosphorylation enrichment, bacterial display (enrichment ratio); higher = better substrate or ligand; peptides without Tyr show the background
EPHB1 = EPHB1 (UniProt P54762); test: as above
EPHB2 = EPHB2 (UniProt P29323); test: as above
FGFR1 = FGFR1 (UniProt P11362); test: as above
FGFR3 = FGFR3 (UniProt P22607); test: as above
Fer (mouse) = test: as above
Fes = Fes (UniProt P07332); test: as above
Fyn = Fyn (UniProt P06241); test: as above
Hck = Hck (UniProt P08631); test: as above
Sequence of Hck (P08631 whole entry, looked up): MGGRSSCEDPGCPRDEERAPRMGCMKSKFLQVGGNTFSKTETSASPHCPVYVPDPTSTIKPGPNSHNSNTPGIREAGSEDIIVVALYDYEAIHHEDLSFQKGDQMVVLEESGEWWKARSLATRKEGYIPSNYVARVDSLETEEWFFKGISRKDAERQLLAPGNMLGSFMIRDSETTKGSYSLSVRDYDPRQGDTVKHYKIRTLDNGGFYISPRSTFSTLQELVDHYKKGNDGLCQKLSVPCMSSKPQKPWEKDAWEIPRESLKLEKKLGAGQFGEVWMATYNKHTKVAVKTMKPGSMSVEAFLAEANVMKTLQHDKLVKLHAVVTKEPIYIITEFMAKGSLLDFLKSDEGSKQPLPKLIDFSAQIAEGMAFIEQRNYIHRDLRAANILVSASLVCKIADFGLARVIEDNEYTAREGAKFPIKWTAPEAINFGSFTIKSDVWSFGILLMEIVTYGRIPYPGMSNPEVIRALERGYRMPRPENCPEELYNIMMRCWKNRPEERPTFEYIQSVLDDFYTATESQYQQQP

Jak2 = Jak2 (UniProt O60674); test: as above
Sequence of Jak2 (O60674 whole entry, looked up): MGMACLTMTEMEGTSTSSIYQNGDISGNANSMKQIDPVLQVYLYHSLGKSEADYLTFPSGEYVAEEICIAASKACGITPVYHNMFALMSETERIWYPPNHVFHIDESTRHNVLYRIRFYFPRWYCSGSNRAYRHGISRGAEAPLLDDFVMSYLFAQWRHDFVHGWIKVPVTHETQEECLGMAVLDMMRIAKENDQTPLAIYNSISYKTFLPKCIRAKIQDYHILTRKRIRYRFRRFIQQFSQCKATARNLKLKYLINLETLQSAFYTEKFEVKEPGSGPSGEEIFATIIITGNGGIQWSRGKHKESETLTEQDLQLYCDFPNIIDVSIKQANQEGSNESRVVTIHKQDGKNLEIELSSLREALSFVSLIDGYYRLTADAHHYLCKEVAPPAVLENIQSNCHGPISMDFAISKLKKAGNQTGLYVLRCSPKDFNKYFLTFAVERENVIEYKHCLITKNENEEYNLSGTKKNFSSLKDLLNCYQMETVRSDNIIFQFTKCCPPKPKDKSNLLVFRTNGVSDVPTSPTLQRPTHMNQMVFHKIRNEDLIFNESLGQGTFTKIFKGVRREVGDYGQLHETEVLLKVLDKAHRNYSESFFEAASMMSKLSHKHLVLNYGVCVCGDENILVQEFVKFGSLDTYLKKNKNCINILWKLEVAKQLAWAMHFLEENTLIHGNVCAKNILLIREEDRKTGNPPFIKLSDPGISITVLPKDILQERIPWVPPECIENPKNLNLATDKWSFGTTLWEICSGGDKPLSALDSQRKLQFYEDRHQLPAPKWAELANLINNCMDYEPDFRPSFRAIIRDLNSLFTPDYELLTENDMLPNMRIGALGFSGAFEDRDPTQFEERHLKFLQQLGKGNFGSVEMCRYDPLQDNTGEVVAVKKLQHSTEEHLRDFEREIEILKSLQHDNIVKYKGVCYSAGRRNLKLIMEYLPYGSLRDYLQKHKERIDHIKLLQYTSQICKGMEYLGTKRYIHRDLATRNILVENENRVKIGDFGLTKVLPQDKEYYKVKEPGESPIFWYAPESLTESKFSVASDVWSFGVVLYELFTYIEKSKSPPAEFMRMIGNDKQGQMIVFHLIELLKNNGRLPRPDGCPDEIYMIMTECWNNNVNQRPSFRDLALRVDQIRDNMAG

MERTK = MERTK (UniProt Q12866); test: as above
Sequence of MERTK (Q12866 whole entry, looked up): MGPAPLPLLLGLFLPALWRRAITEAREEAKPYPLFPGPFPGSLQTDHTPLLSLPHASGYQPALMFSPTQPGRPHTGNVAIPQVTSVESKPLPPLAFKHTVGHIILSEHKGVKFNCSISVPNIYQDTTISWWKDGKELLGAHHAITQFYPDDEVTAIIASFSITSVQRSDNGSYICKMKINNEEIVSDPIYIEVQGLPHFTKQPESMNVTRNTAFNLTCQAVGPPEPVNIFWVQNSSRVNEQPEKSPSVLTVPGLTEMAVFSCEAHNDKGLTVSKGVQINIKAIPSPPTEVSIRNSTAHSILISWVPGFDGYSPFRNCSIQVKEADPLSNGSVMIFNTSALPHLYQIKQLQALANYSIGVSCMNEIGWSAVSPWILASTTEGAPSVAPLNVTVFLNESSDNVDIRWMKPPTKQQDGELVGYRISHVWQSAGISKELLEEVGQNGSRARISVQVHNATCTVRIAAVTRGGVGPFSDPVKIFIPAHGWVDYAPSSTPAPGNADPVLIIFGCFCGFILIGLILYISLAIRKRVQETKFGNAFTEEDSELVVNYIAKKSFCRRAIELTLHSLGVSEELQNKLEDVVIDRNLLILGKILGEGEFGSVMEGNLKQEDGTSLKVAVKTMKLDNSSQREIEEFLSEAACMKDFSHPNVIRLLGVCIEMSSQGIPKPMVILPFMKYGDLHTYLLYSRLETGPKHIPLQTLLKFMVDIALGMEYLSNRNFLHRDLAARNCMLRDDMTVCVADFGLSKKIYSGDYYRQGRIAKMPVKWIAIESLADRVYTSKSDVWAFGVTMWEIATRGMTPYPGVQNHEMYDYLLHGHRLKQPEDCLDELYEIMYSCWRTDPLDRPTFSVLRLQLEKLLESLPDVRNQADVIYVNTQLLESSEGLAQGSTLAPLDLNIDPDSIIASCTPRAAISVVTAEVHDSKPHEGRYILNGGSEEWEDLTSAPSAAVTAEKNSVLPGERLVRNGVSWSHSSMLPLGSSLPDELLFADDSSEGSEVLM

c-Abl (mouse) = test: as above
c-Src = test: as above
Grb2 SH2 = Grb2 SH2 (UniProt P62993); test: SH2 binding enrichment of the phosphorylated peptide, bacterial display (enrichment ratio); higher = better substrate or ligand; peptides without Tyr show the background
Sequence of Grb2 SH2 (P62993 whole entry, looked up): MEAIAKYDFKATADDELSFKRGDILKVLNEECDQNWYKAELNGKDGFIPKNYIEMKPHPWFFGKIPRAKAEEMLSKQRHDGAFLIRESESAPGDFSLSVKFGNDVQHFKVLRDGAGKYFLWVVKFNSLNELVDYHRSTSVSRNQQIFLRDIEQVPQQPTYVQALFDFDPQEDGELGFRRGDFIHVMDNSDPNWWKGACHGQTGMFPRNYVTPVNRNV

SHP2-C SH2 = test: as above
c-Src SH2 = test: as above
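For SH2 binding enrichment of the phosphorylated peptide, bacterial display in this document: peptide library displayed on the E. coli surface as eCPX fusions, selected cells deep-sequenced, score is each peptide's frequency after selection divided by its frequency in the input.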
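For phosphorylation enrichment, bacterial display in this document: 11-residue human phosphosite peptides and single-mutation variants displayed on the E. coli surface, counted by deep sequencing, each peptide's frequency after selection divided by its frequency in the unselected input library; frequency after pTyr selection over input frequency; kinase dosed for 20-30% of maximal phosphorylation in three min.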

Sequence of FGFR1 (P11362 whole entry, looked up): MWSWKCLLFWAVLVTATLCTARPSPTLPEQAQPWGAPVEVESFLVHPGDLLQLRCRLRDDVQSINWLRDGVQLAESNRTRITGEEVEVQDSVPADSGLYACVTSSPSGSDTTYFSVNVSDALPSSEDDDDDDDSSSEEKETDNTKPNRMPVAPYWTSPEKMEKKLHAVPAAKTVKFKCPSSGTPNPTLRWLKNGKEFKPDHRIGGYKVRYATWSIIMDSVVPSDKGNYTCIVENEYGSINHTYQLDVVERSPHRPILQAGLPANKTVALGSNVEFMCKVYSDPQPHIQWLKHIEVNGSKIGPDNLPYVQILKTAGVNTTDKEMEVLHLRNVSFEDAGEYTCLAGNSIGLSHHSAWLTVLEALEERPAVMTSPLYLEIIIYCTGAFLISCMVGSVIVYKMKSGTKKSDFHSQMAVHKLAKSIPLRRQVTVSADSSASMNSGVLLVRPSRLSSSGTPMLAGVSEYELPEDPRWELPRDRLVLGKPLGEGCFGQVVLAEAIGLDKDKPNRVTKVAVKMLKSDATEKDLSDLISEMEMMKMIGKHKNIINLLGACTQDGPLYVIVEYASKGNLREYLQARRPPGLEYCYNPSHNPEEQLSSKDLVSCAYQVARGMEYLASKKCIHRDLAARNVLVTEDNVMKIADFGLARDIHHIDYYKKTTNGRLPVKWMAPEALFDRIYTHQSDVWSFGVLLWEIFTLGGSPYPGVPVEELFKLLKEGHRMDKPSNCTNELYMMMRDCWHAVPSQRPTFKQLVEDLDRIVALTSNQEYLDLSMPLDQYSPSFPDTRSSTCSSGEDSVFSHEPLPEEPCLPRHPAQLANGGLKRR
Sequence of Fes (P07332 whole entry, looked up): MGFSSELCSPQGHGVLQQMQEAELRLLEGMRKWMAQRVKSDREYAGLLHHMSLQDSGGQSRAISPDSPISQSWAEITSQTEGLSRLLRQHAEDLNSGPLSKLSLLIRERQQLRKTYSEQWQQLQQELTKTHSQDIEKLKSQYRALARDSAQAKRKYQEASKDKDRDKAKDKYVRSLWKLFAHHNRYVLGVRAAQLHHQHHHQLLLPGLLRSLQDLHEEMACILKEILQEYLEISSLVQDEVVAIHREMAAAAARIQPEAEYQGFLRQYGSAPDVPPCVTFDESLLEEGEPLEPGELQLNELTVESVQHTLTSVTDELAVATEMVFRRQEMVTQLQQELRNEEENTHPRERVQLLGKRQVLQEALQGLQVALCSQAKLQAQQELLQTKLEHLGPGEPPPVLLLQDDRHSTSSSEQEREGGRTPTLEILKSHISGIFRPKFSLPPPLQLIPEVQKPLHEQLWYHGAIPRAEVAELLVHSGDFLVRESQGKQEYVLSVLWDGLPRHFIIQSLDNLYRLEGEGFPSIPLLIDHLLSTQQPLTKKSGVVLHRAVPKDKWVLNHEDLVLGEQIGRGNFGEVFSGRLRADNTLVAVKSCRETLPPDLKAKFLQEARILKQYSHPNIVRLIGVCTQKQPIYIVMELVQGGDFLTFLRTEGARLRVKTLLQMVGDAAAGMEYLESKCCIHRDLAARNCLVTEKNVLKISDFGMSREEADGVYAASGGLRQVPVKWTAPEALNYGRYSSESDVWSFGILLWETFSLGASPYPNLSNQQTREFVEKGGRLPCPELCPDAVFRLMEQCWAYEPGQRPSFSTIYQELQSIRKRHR
Sequence of Fyn (P06241 whole entry, looked up): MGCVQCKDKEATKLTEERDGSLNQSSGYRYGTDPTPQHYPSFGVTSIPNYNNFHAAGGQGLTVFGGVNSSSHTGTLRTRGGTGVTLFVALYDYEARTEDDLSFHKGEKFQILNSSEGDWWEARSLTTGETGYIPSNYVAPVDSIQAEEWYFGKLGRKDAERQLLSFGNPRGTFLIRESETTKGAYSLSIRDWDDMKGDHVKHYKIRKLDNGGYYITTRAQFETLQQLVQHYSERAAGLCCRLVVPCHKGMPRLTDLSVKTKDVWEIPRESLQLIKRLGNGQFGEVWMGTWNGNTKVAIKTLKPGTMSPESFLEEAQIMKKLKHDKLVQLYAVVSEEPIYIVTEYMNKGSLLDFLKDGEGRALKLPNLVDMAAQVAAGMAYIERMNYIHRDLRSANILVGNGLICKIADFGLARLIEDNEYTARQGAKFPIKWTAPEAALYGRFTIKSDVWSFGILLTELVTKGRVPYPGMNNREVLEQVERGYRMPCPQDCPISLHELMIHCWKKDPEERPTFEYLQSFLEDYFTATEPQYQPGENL

Sequence	phosphorylation enrichment (AncSZ)	phosphorylation enrichment (EPHB1)	phosphorylation enrichment (EPHB2)	phosphorylation enrichment (FGFR1)	phosphorylation enrichment (FGFR3)	phosphorylation enrichment (Fer (mouse))	phosphorylation enrichment (Fes)	phosphorylation enrichment (Fyn)	phosphorylation enrichment (Hck)	phosphorylation enrichment (Jak2)	phosphorylation enrichment (MERTK)	phosphorylation enrichment (c-Abl (mouse))	phosphorylation enrichment (c-Src)	SH2 binding enrichment (Grb2 SH2)	SH2 binding enrichment (SHP2-C SH2)	SH2 binding enrichment (c-Src SH2)
GIVKAYFVRAR [AIPL1_Y267_YF]	1.11	0.445	0.434	0.487	0.558	0.463	0.991	0.488	0.503	1.13	0.512	0.669	0.467	0.826	0.756	0.506
GKGGSYSKAES [HLA-E_Y341_W346S]	0.485	0.3	0.295	0.391	0.394	0.307	0.514	0.375	0.359	0.386	0.447	0.462	0.423	0.73	0.499	0.389
GKSHIYFWTLE [EML2_Y230]	1.22	0.588	0.539	0.8	1.07	0.496	1.3	0.513	0.538	1.3	0.669	0.818	0.577	0.902	0.713	0.548
GLAELYEYQKK [CKAP5_Y1854_K1857Q]	1.08	0.909	0.472	0.61	0.629	0.87	0.985	0.532	0.857	0.917	0.574	0.529	0.813	0.671	0.697	0.509
GLIPAYHWVIM [NMNAT1_Y64_R66W]	1.49	0.755	0.731	8.56	6.04	5.52	1.25	0.503	0.543	1.68	1.8	0.92	0.526	0.878	0.52	0.535
GLRSFYETSKM [MAGED2_Y449_YF]	0.596	0.438	0.342	0.385	0.42	0.505	0.739	0.331	0.506	0.707	0.374	0.806	0.437	0.933	0.771	0.582
GMKIVYVFVKK [DNAI2_Y5_E2K_YF]	1.2	0.59	0.538	0.433	0.706	0.416	1.14	0.463	0.428	1	1.06	0.863	0.394	1.18	1.21	0.677
GNHVSYYQSDG [CACNA1C_Y1757]	0.774	0.557	0.485	0.718	0.81	0.49	0.762	0.462	0.57	0.667	0.81	0.621	0.574	0.806	0.802	0.902

Reference: the supplement of paper PMC10065799, “High-throughput profiling of sequence recognition by tyrosine kinases and SH2 domains using bacterial peptide display” (eLife, 2023)
